Results on eleven molecules are retold here after US20220340657A1 (L AND L BIO CO LTD NINGBO CHINA, published 2022).

T1: human LAG-3-his (human, UniProt P18627 23-422)
T1 construct: range 23-422; also called hLAG-3-his; hLAG-3
T1 sequence: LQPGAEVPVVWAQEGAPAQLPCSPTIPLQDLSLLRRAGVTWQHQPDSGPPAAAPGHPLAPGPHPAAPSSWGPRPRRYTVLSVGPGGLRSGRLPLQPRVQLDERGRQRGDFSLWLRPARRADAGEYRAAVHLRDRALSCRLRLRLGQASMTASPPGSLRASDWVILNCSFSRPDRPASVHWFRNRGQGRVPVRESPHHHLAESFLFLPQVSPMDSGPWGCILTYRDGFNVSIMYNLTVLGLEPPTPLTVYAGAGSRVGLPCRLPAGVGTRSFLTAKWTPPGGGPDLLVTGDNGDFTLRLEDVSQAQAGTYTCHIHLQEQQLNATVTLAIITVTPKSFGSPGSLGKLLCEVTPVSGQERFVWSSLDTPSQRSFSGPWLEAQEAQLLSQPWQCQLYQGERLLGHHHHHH

T2: bio-LAG3-mFc (human, UniProt P18627 23-450, biotin-labelled)
T2 construct: also called hLAG-3
T2 sequence (looked up): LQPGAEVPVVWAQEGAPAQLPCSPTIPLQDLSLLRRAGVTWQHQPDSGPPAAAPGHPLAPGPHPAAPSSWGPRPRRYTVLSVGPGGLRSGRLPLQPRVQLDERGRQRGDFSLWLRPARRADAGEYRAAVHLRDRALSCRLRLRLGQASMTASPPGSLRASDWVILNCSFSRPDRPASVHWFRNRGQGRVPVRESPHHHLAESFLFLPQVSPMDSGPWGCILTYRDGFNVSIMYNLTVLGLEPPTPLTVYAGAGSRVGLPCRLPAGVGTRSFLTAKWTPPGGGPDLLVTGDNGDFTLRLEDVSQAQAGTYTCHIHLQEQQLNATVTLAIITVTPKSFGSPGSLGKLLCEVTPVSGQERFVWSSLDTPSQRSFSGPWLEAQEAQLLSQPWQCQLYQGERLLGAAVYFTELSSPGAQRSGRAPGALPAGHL

B1: LB2383 (bispecific antibody, human IgG4 S228P, kappa)
light: EIVLTQSPATLSLSPGERATLSCRASKGVSTSGYSYLHWYQQKPGQAPRLLIYLASYLESGVPARFSGSGSGTDFTLTISSLEPEDFAVYYCQHSRDLPLTFGGGTKVEIKRTVAAPSVFIFPPSDEQLKSGTASVVCLLNNFYPREAKVQWKVDNALQSGNSQESVTEQDSKDSTYSLSSTLTLSKADYEKHKVYACEVTHQGLSSPVTKSFNRGEC
heavy: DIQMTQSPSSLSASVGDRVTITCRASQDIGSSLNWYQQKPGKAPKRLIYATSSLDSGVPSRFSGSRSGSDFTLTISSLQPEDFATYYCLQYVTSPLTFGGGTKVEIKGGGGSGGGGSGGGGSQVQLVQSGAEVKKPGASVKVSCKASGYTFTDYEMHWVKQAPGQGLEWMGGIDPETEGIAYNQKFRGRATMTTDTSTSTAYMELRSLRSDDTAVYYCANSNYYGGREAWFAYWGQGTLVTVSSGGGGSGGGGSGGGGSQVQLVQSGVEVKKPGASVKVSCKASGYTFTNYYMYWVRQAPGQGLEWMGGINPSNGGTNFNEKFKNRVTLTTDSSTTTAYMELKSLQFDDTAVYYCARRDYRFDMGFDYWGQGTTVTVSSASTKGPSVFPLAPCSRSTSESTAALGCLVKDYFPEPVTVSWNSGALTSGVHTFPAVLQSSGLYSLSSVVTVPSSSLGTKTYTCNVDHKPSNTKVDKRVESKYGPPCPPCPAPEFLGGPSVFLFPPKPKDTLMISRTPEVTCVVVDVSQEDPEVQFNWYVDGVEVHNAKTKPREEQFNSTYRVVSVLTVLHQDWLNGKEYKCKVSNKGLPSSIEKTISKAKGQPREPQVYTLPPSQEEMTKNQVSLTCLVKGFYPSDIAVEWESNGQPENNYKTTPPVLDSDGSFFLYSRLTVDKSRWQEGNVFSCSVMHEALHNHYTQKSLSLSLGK
B2: LB2382 (bispecific antibody, human IgG4 S228P, kappa)
light: EIVLTQSPATLSLSPGERATLSCRASKGVSTSGYSYLHWYQQKPGQAPRLLIYLASYLESGVPARFSGSGSGTDFTLTISSLEPEDFAVYYCQHSRDLPLTFGGGTKVEIKRTVAAPSVFIFPPSDEQLKSGTASVVCLLNNFYPREAKVQWKVDNALQSGNSQESVTEQDSKDSTYSLSSTLTLSKADYEKHKVYACEVTHQGLSSPVTKSFNRGECGGGGSGGGGSGGGGSQVQLVQSGAEVKKPGASVKVSCKASGYTFTDYEMHWVKQAPGQGLEWIGGIDPETEGIAYNQKFRGRATLTADKSTSTAYMELRSLRSDDTAVYYCTNSNYYGGREAWFAYWGQGTLVTVSSGGGGSGGGGSGGGGSDIQMTQSPSSLSASVGDRVTITCRASQDIGSSLNWYQQKPGKAPKRLIYATSSLDSGVPSRFSGSRSGSDFTLTISSLQPEDFATYYCLQYVTSPLTFGGGTKVEIK
heavy: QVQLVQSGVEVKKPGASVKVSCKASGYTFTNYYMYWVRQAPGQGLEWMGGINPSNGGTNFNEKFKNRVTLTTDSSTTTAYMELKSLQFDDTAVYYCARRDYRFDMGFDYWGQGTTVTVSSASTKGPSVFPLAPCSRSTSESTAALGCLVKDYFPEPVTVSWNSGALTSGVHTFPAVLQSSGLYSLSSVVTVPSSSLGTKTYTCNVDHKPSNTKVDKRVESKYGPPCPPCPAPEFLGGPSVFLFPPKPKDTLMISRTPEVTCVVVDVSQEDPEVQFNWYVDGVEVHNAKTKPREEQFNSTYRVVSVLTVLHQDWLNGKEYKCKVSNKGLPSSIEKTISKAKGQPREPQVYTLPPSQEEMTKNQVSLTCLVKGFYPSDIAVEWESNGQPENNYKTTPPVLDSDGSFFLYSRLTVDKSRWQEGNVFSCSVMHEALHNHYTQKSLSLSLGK
B3: LB2381 (bispecific antibody, human IgG4 S228P, kappa)
light: DIQMTQSPSSLSASVGDRVTITCRASQDIGSSLNWYQQKPGKAPKRLIYATSSLDSGVPSRFSGSRSGSDFTLTISSLQPEDFATYYCLQYVTSPLTFGGGTKVEIKGGGGSGGGGSGGGGSQVQLVQSGAEVKKPGASVKVSCKASGYTFTDYEMHWVKQAPGQGLEWIGGIDPETEGIAYNQKFRGRATLTADKSTSTAYMELRSLRSDDTAVYYCTNSNYYGGREAWFAYWGQGTLVTVSSGGGGSGGGGSGGGGSEIVLTQSPATLSLSPGERATLSCRASKGVSTSGYSYLHWYQQKPGQAPRLLIYLASYLESGVPARFSGSGSGTDFTLTISSLEPEDFAVYYCQHSRDLPLTFGGGTKVEIKRTVAAPSVFIFPPSDEQLKSGTASVVCLLNNFYPREAKVQWKVDNALQSGNSQESVTEQDSKDSTYSLSSTLTLSKADYEKHKVYACEVTHQGLSSPVTKSFNRGEC
heavy: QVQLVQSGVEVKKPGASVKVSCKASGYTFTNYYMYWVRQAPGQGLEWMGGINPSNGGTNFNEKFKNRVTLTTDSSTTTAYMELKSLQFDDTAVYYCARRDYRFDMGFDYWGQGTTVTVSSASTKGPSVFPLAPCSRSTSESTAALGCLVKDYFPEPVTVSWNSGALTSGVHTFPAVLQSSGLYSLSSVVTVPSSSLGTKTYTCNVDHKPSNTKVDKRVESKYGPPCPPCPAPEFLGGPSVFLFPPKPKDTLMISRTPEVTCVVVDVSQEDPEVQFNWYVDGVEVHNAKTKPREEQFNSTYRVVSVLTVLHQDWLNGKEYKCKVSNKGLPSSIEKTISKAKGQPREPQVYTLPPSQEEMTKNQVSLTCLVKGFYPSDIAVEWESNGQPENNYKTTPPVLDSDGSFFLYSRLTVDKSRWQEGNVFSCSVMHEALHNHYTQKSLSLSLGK
B4: Ab2315 (antibody, human IgG4 S228P, kappa, V domains shown)
VH: QVQLVQSGAEVKKPGASVKVSCKASGYTFTDYEMHWVKQAPGQGLEWIGGIDPETEGIAYNQKFRGRATLTADKSTSTAYMELRSLRSDDTAVYYCTNSNYYGGREAWFAYWGQGTLVTVSS
VL: DIQMTQSPSSLSASVGDRVTITCRASQDIGSSLNWLQQKPGKAIKRLIYATSSLDSGVPSRFSGSGSGTDYTLTISSLQPEDFATYYCLQYVTSPLTFGGGTKVEIKR
notes: LG2315 / LG2343, human kappa / hIgG4
B5: Ab2314 (antibody, human IgG4 S228P, kappa, V domains shown)
VH: B4 VH
VL: B4 VL with G66R, T69S
notes: human kappa / hIgG4
B6: Ab2320 (antibody, human IgG4 S228P, kappa, V domains shown)
VH: B4 VH with L70M, A72T
VL: B4 VL
notes: human kappa / hIgG4
B7: Ab2313 (antibody, human IgG4 S228P, kappa, V domains shown)
VH: B4 VH
VL: B4 VL with T5I, K42G, G66R, T69S, T72S
notes: human kappa / hIgG4
B8: Ab2322 (antibody, human IgG4 S228P, kappa, V domains shown)
VH: B4 VH with L70M, A72T, K74T
VL: B4 VL with L36Y, I44P, G66R, T69S, Y71F
notes: human kappa / hIgG4
B9: Ab2318 (antibody, human IgG4 S228P, kappa, V domains shown)
VH: B4 VH
VL: B4 VL with G66R, Y71F
notes: human kappa / hIgG4
B10: Ab2316 (antibody, human IgG4 S228P, kappa, V domains shown)
VH: B4 VH
VL: B4 VL with G66R, T69S, Y71F
notes: human kappa / hIgG4
B11: Ab2319 (antibody, human IgG4 S228P, kappa, V domains shown)
VH: B4 VH with L70M, A72T
VL: B4 VL with G66R, T69S
notes: human kappa / hIgG4

Broadly, the EC50 is the concentration at which the effect is half-maximal. A low value points to higher potency in that assay. As usually defined, the IC50 is the concentration that inhibits the measured activity by half. Lower therefore signals inhibition by little substance.

Substitutions are numbered along the chain they refer to.

T3 sequence (Q15116 21-167, form in doubt): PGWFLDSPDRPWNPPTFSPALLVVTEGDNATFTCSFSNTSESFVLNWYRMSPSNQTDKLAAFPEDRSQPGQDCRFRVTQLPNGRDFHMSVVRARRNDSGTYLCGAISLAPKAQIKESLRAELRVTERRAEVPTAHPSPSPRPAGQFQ

In one test the target is T1, human LAG-3-his. Kind of test: ELISA on human LAG-3. (In general: ELISA stands for enzyme-linked immunosorbent assay.)
Molecule B1 gave an EC50 of 0.237 nM.
Consider B2, for which a half-maximal response (EC50) required 0.951 nM.
Take B3: the response was half-maximal at 0.79 nM (EC50).

Another test addresses T3, human PD-1 (hFc/his tag) (human, UniProt Q15116 21-167).
T3 construct: range 21-167; not shown: hFc or his tag
Kind of test: ELISA on human PD-1.
As for B1, a half-maximal response (EC50) required 0.138 nM. In other words, the sub-nanomolar range.
As for B2, the midpoint of the response, the EC50, lay at 0.309 nM. Against the preceding molecule, the EC50 is about 2.2-fold higher.
Still for that read-out and setting: for B3 the value was 0.332 nM.

A further test concerns the target T2, bio-LAG3-mFc. Kind of test: blocking ELISA, LAG-3 on Daudi cells.
B4: half-maximal inhibition (IC50) was put at 2.18 nM.
On the same count and under the same terms, for B5 the value was 1.22 nM.
Still for that read-out and setting: under B6 stands 1.32 nM; under B7, 3.22 nM.
For B8, the IC50 stood at 2.32 nM.
On to B9, for which half-maximal inhibition (IC50) was put at 0.86 nM.
For the molecule B10, 1.5 nM corresponded to half-maximal inhibition (IC50).
As for B11, it took 1.85 nM to reach half-maximal inhibition (IC50). This IC50 and that of the molecule before are within 1.5-fold of each other.

The next test deals with T1, human LAG-3-his. Kind of test: ELISA on hLAG-3. As to the method:
After discarding the liquid, a blocking solution of 5% skimmed milk (Bright skimmed milk powder) diluted with PBS was added at 230 μl per well, followed by incubating at 37° C. for 3 hours or 4° C. overnight (16-18 hours) for blocking. Subsequently, the blocking solution was discarded, and the micropiate was washed 5 times with PBST buffer (pH 7.4 PBS containing 0.05% tweeen-20). Then 50 μl/well of the supernatant (containing the antibody to be tested) or a starting concentration of 10 μg/ml of the antibody to be tested, which was diluted 5 times in gradient, was added, followed by incubating the mixture for 1 hour at 37° C. […] After washing the microplate 5 times with PBST, 50 μl/well TIMB chromogenic substrate (KPL, Cat. No.: 52-00-03) was added, and then incubated for […] at room temperature. Finally, 50 μl/well of 1 M H₂SO₄ was added to stop the reaction. The absorbance value at 450 nm was read by […] GO microplate reader (ThermoFisher, Cat. No.: 51119200). The clones with high affinity were selected according to the OD value or the EC₅₀ value was calculated (for antibodies with known concentrations).
Molecule B4 returned an EC50 of 0.181 nM.
B5 had an EC50 of 0.237 nM. The EC50 values of the last two molecules are within 1.5-fold of each other.
Still for that read-out and setting: for B6 the value was 1.01 nM; for B7, 0.221 nM.
Still for that read-out and setting: under B8 stands 0.131 nM.
Turning to B9, the EC50 was 0.28 nM.
The same measure, in the same setting: under B10 stands 0.307 nM; under B11, 0.764 nM.
